Residue numbers refer to the chain shown, from its start. Names may count otherwise. Values belong to the binder of their own block, whether it stands above or below them.
Experiments:
[1] = target: T1, cynomolgus FAP protein expressed on 293T cells (293T-cynomolgus FAP) (cynomolgus monkey, UniProt Q12884 1-760 (human entry)); assay: flow cytometry on 293T-cynomolgus FAP cells, PE goat anti-human IgG Fc secondary antibody
T1 sequence: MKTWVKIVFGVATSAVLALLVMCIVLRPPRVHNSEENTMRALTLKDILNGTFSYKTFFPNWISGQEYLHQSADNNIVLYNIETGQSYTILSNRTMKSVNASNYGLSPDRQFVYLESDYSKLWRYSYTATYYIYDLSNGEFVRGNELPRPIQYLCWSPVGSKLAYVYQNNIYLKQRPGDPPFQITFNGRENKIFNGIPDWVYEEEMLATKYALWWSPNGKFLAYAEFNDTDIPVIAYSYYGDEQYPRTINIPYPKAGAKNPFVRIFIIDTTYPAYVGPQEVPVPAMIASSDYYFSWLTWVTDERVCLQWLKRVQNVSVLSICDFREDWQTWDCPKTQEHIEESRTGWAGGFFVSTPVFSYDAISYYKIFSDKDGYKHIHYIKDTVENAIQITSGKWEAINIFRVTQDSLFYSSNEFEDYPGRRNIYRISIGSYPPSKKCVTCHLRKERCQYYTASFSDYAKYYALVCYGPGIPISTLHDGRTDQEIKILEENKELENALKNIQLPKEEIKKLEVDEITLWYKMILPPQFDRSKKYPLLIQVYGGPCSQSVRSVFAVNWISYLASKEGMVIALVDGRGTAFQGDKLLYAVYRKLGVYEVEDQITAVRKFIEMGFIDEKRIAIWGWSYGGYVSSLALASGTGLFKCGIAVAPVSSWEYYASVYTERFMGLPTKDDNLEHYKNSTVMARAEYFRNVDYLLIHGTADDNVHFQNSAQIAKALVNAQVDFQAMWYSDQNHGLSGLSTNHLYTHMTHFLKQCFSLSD
Method: (§1) The cells were washed twice with PBS, and then fluorescent secondary antibody R-PE-conjugated AffiniPure Goat Anti-Human IgG, Fcγ Fragment Specific (Jackson Immuno Research, Cat #109-116-098) was added. The cells were incubated at 4° C. for 30 min. The cells were washed twice with PBS and then resuspended, and finally, fluorescence signals were detected using the […] (BD Bioscience) flow cytometer.

[2] = target: T2, human DPP4 protein expressed on 293T cells (293T-DPP4) (human, UniProt P27487 1-766); assay: flow cytometry on 293T-DPP4 cells, PE goat anti-human IgG Fc secondary antibody
T2 construct: also called CD26
Method: as §1, with “cytometer. […] The antibodies were diluted at 1:100 with PBS, and the cell pellet was resuspended and incubated at 4° C. for 30 min. The cells were washed twice with PBS and then resuspended in 100 μL of PBS, and finally, fluorescence signals were detected using the BD Accuri C5 (BD Bioscience) flow cytometer.” for “cytometer.”

[3] = target: T3, recombinant human FAP protein (Sino Biological, Cat #10464-H07H) (human, UniProt Q12884 26-760); assay: ELISA, human FAP protein coated on the plate, detection with HRP goat anti-human IgG F(ab')2; unit from the axis 'Antibody Conc[nM]' and paragraph 217
T3 construct: Bought protein
T3 sequence: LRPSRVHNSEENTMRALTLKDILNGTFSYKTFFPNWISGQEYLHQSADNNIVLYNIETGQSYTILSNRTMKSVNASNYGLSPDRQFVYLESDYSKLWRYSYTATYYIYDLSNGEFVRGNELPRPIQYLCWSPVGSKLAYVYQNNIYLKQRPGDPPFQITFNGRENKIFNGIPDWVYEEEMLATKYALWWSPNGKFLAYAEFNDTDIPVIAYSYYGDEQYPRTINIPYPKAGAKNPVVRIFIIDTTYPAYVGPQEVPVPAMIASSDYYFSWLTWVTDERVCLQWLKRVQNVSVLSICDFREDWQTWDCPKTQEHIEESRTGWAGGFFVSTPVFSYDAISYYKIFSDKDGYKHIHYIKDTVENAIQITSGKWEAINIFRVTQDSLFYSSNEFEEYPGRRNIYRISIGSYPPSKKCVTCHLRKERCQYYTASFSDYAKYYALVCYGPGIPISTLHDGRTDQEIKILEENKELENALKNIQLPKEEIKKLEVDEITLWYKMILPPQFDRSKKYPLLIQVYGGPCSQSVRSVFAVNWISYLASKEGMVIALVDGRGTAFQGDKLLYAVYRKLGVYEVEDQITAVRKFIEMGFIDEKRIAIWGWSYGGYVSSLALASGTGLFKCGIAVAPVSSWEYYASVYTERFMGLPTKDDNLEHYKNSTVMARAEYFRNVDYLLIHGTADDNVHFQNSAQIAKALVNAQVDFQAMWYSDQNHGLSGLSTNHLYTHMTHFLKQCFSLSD
Method: Human FAP protein (Sino Biological, Cat #10464-H07H) was immobilized on a 96-well plate by incubation overnight in a PBS buffer at 4° C. The plate was then blocked by incubation with a PBS containing 1% of BSA for 1 h at 37° C. After blocking, the plate was washed thrice with PBST (PBS containing 0.05% of Tween 20). […] After binding, the plate was washed thrice with PBST, incubated at 37° C. for 1 h with peroxidase-labeled goat anti-human IgG, F(ab′)₂ fragment specific (Jackson Immuno Research, Cat #109-035-097) diluted at 1/15,000 in the binding buffer, washed again, subjected to a chromogenic reaction with TMB, and quenched with 1 M H₂SO₄.

[4] = target: T4, human FAP protein expressed on 293T cells (293T-human FAP) (human, UniProt Q12884 1-760); assay: flow cytometry on 293T-human FAP cells, PE goat anti-human IgG Fc secondary antibody
T4 sequence: T1 sequence with P29S, F261V, D417E
Method: as §1

[5] = target: T1, cynomolgus FAP protein expressed on …; assay: flow cytometry on 293T-cynomolgus FAP cells (panel title on the sheet), PE goat anti-human IgG Fc secondary antibody
Method: as §1

[6] = target: T4, human FAP protein expressed on 293T …; assay: flow cytometry on 293T-human FAP cells (panel title on the sheet), PE goat anti-human IgG Fc secondary antibody
Method: as §1

T2 sequence (P27487 whole entry): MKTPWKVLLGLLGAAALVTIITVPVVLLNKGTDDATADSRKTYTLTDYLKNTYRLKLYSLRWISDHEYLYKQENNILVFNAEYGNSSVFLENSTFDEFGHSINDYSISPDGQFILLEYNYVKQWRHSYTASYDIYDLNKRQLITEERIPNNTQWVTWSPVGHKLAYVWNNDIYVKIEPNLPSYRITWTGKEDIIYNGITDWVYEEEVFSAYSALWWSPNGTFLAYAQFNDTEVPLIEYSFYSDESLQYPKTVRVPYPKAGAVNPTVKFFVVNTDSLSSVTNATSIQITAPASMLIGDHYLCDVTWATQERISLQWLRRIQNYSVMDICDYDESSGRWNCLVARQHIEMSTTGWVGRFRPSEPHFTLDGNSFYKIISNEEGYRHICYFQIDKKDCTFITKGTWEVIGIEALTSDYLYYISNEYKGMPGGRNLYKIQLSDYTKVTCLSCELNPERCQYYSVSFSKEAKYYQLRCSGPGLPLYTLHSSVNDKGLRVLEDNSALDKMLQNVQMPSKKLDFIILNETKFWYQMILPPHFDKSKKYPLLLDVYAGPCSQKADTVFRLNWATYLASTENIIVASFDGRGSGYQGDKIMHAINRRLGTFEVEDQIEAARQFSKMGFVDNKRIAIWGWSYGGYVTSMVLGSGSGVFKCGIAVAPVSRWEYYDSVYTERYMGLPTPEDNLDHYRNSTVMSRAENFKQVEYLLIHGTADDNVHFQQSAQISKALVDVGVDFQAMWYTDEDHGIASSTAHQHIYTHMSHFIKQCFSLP

- EC50 (read off the curve) [1]: ~1 nM
- binding result [2]: no binding (tested: 10 µg/mL)
- EC50 [3]: 0.0863 nM
- EC50 (read off the curve) [4]: ~2 nM
B1: sibrotuzumab (humanized reference antibody) (antibody, human IgG1, kappa, V domains shown)
VH: QVQLVQSGAEVKKPGASVKVSCKTSRYTFTEYTIHWVRQAPGQRLEWIGGINPNNGIPNYNQKFKGRVTITVDTSASTAYMELSSLRSEDTAVYYCARRRIAYGYDEGHAMDYWGQGTLVTVSS
VL: DIVMTQSPDSLAVSLGERATINCKSSQSLLYSRNQKNYLAWYQQKPGQPPKLLIFWASTRESGVPDRFSGSGFGTDFTLTISSLQAEDVAVYYCQQYFSYPLTFGQGTKVEIKR

- EC50 (read off the curve) [5]: ~4 nM
- EC50 (read off the curve) [1]: 1 to 2 nM
- binding result [2]: no binding (tested: 10 µg/mL)
- EC50 [3]: 0.0926 nM
- EC50 (read off the curve) [4]: ~2 nM
- EC50 (read off the curve) [6]: ~3 nM
B2: humanized anti-FAP antibody huF19-LG (antibody, human IgG1, kappa, V domains shown)
VH: B1 VH with T24A, R26G, P41T, R44G, V68A, I70M, D73G, A76I, Y95F
VL: DIQMTQSPSSLSASVGDRVTITCKSSQSLLYSRNQKNYLAWFQQKPGKAPKLLIFWASTRESGVPSRFTGSGFGTDFTLTISSLQPEDFATYYCQQYFSYPLTFGQGTKLEIKR
notes: Humanized from murine F19

- EC50 (read off the curve) [5]: ~3 nM
- EC50 (read off the curve) [6]: ~2 nM
B3: mutant humanized FAP antibody huF19-LG-NGR (antibody, human IgG1, kappa, V domains shown)
VH: B1 VH with T24A, R26G, P41T, R44G, G56R, V68A, I70M, D73G, A76I, Y95F
VL: B2 VL
notes: huF19-LG with G56R (Kabat) in HCDR2; also called optimized FAP antibody; mutant antibody
